Square brackets hold non-standard residues; d marks the D form. Ends that are not written are not given here. Hyp = O=C(O)[C@@H]1C[C@@H](O)CN1
Experiments:
Test in all cases: ITC; 0.5–1 mM peptide titrated into 10–40 μM ecdTDR; 25°C; 10 mM sodium citrate, 100 mM NaCl, pH 5.5; fitted to one set of binding sites; MicroCal Auto-iTC200
Details in all cases: both partners purified
ecdTDR G186A mutant = target: T1, ecdTDR G186A mutant (Arabidopsis thaliana, UniProt Q9FII5 30-642, G186A)
T1 construct: TDR/PXY of A. thaliana, extracellular domain, residues 30-642; source: High Five insect cells (baculovirus), secreted, purified as the wild type (Ni-NTA, size-exclusion chromatography)
T1 sequence (looked up): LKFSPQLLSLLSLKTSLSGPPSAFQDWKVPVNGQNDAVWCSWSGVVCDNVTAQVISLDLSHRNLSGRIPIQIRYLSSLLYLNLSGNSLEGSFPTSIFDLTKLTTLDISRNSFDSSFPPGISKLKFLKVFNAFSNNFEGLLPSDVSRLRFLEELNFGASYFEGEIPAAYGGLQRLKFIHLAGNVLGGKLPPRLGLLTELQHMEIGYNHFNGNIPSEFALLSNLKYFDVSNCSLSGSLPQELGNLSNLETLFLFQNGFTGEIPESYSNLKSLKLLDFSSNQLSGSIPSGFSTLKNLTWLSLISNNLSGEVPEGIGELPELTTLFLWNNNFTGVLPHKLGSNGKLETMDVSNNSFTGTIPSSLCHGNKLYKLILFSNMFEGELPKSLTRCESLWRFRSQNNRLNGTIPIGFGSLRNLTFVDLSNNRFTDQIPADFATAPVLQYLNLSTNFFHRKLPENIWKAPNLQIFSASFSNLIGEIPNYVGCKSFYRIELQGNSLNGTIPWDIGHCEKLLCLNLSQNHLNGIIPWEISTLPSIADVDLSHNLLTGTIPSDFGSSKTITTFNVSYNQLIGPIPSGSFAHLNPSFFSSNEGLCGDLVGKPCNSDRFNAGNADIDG

ecdTDR S305A mutant = target: T2, ecdTDR S305A mutant (Arabidopsis thaliana, UniProt Q9FII5 30-642, S305A)
T2 construct: TDR/PXY of A. thaliana, extracellular domain, residues 30-642; also called alanine substitution mutation of TDR-S305; source: High Five insect cells (baculovirus), secreted, purified as the wild type (Ni-NTA, size-exclusion chromatography)
T2 sequence (looked up): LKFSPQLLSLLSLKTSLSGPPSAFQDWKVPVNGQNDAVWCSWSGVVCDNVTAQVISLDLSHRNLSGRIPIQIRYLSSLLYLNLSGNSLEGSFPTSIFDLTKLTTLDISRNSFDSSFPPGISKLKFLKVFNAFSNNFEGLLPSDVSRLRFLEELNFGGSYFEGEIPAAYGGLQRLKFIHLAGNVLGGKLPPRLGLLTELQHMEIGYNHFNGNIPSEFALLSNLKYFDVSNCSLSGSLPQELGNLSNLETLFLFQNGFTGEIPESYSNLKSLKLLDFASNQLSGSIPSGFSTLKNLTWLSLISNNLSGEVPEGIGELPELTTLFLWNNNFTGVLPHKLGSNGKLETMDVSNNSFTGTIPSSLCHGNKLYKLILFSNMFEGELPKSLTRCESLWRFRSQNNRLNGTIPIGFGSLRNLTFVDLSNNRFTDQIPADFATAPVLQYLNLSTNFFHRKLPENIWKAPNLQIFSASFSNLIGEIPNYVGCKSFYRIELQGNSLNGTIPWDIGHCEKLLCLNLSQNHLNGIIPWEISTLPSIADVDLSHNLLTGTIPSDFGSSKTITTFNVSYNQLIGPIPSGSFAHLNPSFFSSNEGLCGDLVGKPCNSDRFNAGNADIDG

[1] = target: T3, TDR-R421A/R423A double mutant (ecdTDR) (Arabidopsis thaliana, UniProt Q9FII5 30-642, R421A | R423A)
T3 construct: TDR/PXY of A. thaliana, extracellular domain, residues 30-642; source: High Five insect cells (baculovirus), secreted, purified as the wild type (Ni-NTA, size-exclusion chromatography)
T3 sequence (looked up): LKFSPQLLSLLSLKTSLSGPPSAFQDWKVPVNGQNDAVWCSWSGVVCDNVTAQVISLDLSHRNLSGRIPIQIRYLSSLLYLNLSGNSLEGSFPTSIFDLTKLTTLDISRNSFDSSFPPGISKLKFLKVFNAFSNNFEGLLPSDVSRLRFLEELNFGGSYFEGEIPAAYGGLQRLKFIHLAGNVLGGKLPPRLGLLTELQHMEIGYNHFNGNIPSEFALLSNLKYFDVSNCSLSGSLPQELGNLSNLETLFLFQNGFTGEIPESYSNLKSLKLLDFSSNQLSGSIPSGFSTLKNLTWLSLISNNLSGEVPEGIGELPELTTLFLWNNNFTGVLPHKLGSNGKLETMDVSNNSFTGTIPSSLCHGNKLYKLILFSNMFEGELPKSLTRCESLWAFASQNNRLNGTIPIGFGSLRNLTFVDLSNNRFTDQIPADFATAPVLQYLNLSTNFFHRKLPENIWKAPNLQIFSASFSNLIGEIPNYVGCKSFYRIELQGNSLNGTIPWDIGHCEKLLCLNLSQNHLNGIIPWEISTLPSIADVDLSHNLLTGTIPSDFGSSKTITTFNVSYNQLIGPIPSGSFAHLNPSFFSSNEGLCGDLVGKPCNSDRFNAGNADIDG

B1: Tracheary Element Differentiation Inhibitory Factor (TDIF) peptide (peptide)
peptide: HEV[Hyp]SG[Hyp]NPISN
notes: TDIF, the 12-residue CLE peptide processed from CLE41 and CLE44 of A. thaliana; printed as HEV(Hyp)SG(Hyp)NPISN; numbers count on: the 12-residue peptide; CLE44 encodes the same peptide; also called wild type TDIF; wtTDIF; source: synthetic peptide (peptide 2.0)
binding result (ecdTDR G186A mutant): binds | fold lower binding than wild-type ecdTDR (ecdTDR S305A mutant): 4.4 fold | fold lower affinity than wild-type ecdTDR [1]: 3 fold

Source: publication PMC5383425, “Differential CLE peptide perception by plant receptors implicated from structural and functional analyses of TDIF-TDR interactions” (PLoS ONE, 2017)
